In patent US11135246B2, “Peptides and combination of peptides for use in immunotherapy against leukemias and other cancers” (Immatics Biotechnologies GmbH, priority 2017, dated 2021):

Each substance was assayed against HLA-B*44:02 (Homo sapiens, UniProt P01889, A223V/A65T/A93T/A95T/D201E/D98Y/E176V/E187L/E204Q/E69K/G107R/H137Y/K202T/L105A/L119I/N104T/N87E/Q56L/Q94N/R106L/R155S/R180D/S101N/S121R/S35A/S48T/T118I/V36M/W191S/Y140D/Y91S) (assay: MHC binding assay, UV-ligand exchange with β2m ELISA, HLA-B*44:02). Conditions: binding to HLA-B*44:02, UV-ligand exchange.
Description: Candidate peptides for T cell based therapies according to the present invention were further tested for their MHC binding capacity (affinity). The individual peptide-MHC complexes were produced by UV-ligand exchange, where a UV-sensitive peptide is cleaved upon UV-irradiation, and exchanged with the peptide of interest as analyzed. Only peptide candidates that can effectively bind and stabilize the peptide-receptive MHC molecules prevent dissociation of the MHC complexes. To determine the yield of the exchange reaction, an ELISA was performed based on the detection of the light chain (β2m) of stabilized MHC complexes. The assay was performed as generally described in Rodenko et al. (Rodenko et al., 2006).
96 well MAXISorp plates (NUNC) were coated over night with 2 ug/ml streptavidin in PBS at room temperature, washed 4× and blocked for 1 h at 37° C. in 2% BSA containing blocking buffer. Refolded HLA-A*02:01/MLA-001 monomers served as standards, covering the range of 15-500 ng/ml. Peptide-MHC monomers of the UV-exchange reaction were diluted 100-fold in blocking buffer. Samples were incubated for 1 h at 37° C., washed four times, incubated with 2 ug/ml HRP conjugated anti-β2m for 1 h at 37° C., washed again and detected with TMB solution that is stopped with […]. Absorption was measured at 450 nm. Candidate peptides that show a high exchange yield (preferably higher than 50%, most preferred higher than 75%) are generally preferred for a generation and production of antibodies or fragments thereof, and/or T cell receptors or fragments thereof, as they show sufficient avidity to the MHC molecules and prevent dissociation of the MHC complexes.

| Substance | Peptide exchange (MHC class I binding score, peptide exchange yield) |
| --- | --- |
| 122 (KELPGVKKY; listed as Homo sapiens) [compound 122] | “++” (>20% = ++) |
| 123 (EENPGKFLF; listed as Homo sapiens) [compound 123] | “+++” (>50 = +++) |
| 124 (SESLPKEAF; listed as Homo sapiens) [compound 124] | “++” (>20% = ++) |
| 125 (SESTFDRTF; listed as Homo sapiens) [compound 125] | “+++” (>50 = +++) |
| 126 (EENKPGIVY; listed as Homo sapiens) [compound 126] | “++” (>20% = ++) |
| 127 (TEYPVFVY; listed as Homo sapiens) [compound 127] | “+” (>10% = +) |
| 128 (GENDRLNHTY; listed as Homo sapiens) [compound 128] | “++” (>20% = ++) |
| 129 (GEGAYGKVF; listed as Homo sapiens) [compound 129] | “++++” (>75% = ++++) |
| 130 (EEEHGKGREY; listed as Homo sapiens) [compound 130] | “++” (>20% = ++) |
| 131 (EEFETIERF; listed as Homo sapiens) [compound 131] | “++” (>20% = ++) |
| 132 (GELPAVRDL; listed as Homo sapiens) [compound 132] | “++” (>20% = ++) |
| 133 (AEHNFVAKA; listed as Homo sapiens) [compound 133] | “+++” (>50 = +++) |
| 134 (SEYADTHYF; listed as Homo sapiens) [compound 134] | “+++” (>50 = +++) |
| 135 (NEIKVYITF; listed as Homo sapiens) [compound 135] | “+++” (>50 = +++) |
| 136 (AEYKGRVTL; listed as Homo sapiens) [compound 136] | “++++” (>75% = ++++) |
| 137 (GELGGSVTI; listed as Homo sapiens) [compound 137] | “+++” (>50 = +++) |
| 138 (SQAPAARAF; listed as Homo sapiens) [compound 138] | “++” (>20% = ++) |
| 139 (RENQVLGSGW; listed as Homo sapiens) [compound 139] | “+++” (>50 = +++) |
| 140 (EYDLKWEF; listed as Homo sapiens) [compound 140] | “++” (>20% = ++) |
| 141 (REYEYDLKWEF; listed as Homo sapiens) [compound 141] | “+++” (>50 = +++) |
| 142 (TEIFKEHNF; listed as Homo sapiens) [compound 142] | “++” (>20% = ++) |

| Substance | Peptide exchange (MHC class I binding score, peptide exchange yield) |
| --- | --- |
| 143 (YEYDLKWEF; listed as Homo sapiens) [compound 143] | “+++” (>50 = +++) |
| 144 (TEGKRYFTW; listed as Homo sapiens) [compound 144] | “+++” (>50 = +++) |
| 145 (AEPLVGQRW; listed as Homo sapiens) [compound 145] | “+++” (>50 = +++) |
| 146 (SESKTVVTY; listed as Homo sapiens) [compound 146] | “+++” (>50 = +++) |
| 147 (KEVPRSYEL; listed as Homo sapiens) [compound 147] | “++” (>20% = ++) |
| 148 (REYNEYENI; listed as Homo sapiens) [compound 148] | “++” (>20% = ++) |
| 149 (SEKETVAYF; listed as Homo sapiens) [compound 149] | “+++” (>50 = +++) |
| 150 (EEVTDRSQL; listed as Homo sapiens) [compound 150] | “++” (>20% = ++) |
| 151 (EVDASIFKAW; listed as Homo sapiens) [compound 151] | “++” (>20% = ++) |
| 152 (AELLAKELY; listed as Homo sapiens) [compound 152] | “++” (>20% = ++) |
| 153 (KEFEQVPGHL; listed as Homo sapiens) [compound 153] | “++” (>20% = ++) |
| 154 (AEPGPVITW; listed as Homo sapiens) [compound 154] | “+++” (>50 = +++) |
| 155 (NEFPVIVRL; listed as Homo sapiens) [compound 155] | “+++” (>50 = +++) |
| 156 (FEVESLFQKY; listed as Homo sapiens) [compound 156] | “+++” (>50 = +++) |
| 157 (VEIAEAIQL; listed as Homo sapiens) [compound 157] | “+++” (>50 = +++) |
| 158 (GENEDNRIGL; listed as Homo sapiens) [compound 158] | “++” (>20% = ++) |
| 159 (GELLGRQSF; listed as Homo sapiens) [compound 159] | “+++” (>50 = +++) |
| 160 (EEETILHFF; listed as Homo sapiens) [compound 160] | “++” (>20% = ++) |
| 161 (EEGDTLLHLF; listed as Homo sapiens) [compound 161] | “+++” (>50 = +++) |
| 162 (DEAQARAAF; listed as Homo sapiens) [compound 162] | “++” (>20% = ++) |
| 163 (EEWMGLLEY; listed as Homo sapiens) [compound 163] | “++++” (>75% = ++++) |

| Substance | Peptide exchange (MHC class I binding score, peptide exchange yield) |
| --- | --- |
| 164 (SEYSHLTRV; listed as Homo sapiens) [compound 164] | “++” (>20% = ++) |
| 165 (VELDLQRSV; listed as Homo sapiens) [compound 165] | “++” (>20% = ++) |
| 166 (NEVLASKY; listed as Homo sapiens) [compound 166] | “+” (>10% = +) |
| 167 (KEIGAAVQAL; listed as Homo sapiens) [compound 167] | “+++” (>50 = +++) |
| 168 (QEIQSLLTNW; listed as Homo sapiens) [compound 168] | “+++” (>50 = +++) |
| 169 (EENGEVKEL; listed as Homo sapiens) [compound 169] | “++” (>20% = ++) |
| 170 (SENEQRRMF; listed as Homo sapiens) [compound 170] | “+++” (>50 = +++) |
| 171 (SEDLAVHLY; listed as Homo sapiens) [compound 171] | “++” (>20% = ++) |
| 172 (VEDGLFHEF; listed as Homo sapiens) [compound 172] | “+++” (>50 = +++) |
| 173 (KEYDFGTQL; listed as Homo sapiens) [compound 173] | “++” (>20% = ++) |
| 174 (TDKSFPNAY; listed as Homo sapiens) [compound 174] | “+” (>10% = +) |
| 175 (HEIDGKALFL; listed as Homo sapiens) [compound 175] | “++” (>20% = ++) |
| 176 (AENAVSNLSF; listed as Homo sapiens) [compound 176] | “++” (>20% = ++) |
| 177 (QENMQIQSF; listed as Homo sapiens) [compound 177] | “+++” (>50 = +++) |
| 178 (REYEHYWTEL; listed as Homo sapiens) [compound 178] | “+++” (>50 = +++) |
| 179 (AEIKQTEEKY; listed as Homo sapiens) [compound 179] | “++” (>20% = ++) |
| 180 (EEPAFNVSY; listed as Homo sapiens) [compound 180] | “++” (>20% = ++) |
| 181 (GEIKEPLEI; listed as Homo sapiens) [compound 181] | “++” (>20% = ++) |
| 182 (AQNLSIIQY; listed as Homo sapiens) [compound 182] | “++” (>20% = ++) |
